The results in this text go back to paper PMC4366279 (PLoS ONE, 2015).

B1: T. brucei RNA Editing Ligase 1 (TbREL1), full length wild type [modified: [35S]-methionine labelled; [35S]-methionine labelled] [Trypanosoma brucei] / KREPA2 [modified: [35S]-methionine labelled; [35S]-methionine labelled] [Trypanosoma … (parent complex)
chain 1: YMPLPNDQSDFSPYIEIDLPSESRIQSLHKSGLAAQEWVACEKVHGTNFGIYLINQGDHEVVRFAKRSGIMDPNENFFGYHILIDEFTAQIRILNDLLKQKYGLSRVGRLVLNGELFGAKYKHPLVPKSEKWCTLPNGKKFPIAGVQIQREPFPQYSPELHFFAFDIKYSVSGAEEDFVLLGYDEFVEFSSKVPNLLYARALVRGTLDECLAFDVENFMTPLPALLGLGNYPLEGNLAEGVVIRHVRRGDPAVEKHNVSTIIKLRCSSFMELKHPGKQKELKETFIDTVRSGALRRVRGNVTVISDSMLPQVEAAANDLLLNNVSDGRLSNVLSKIGREPLLSGEVSQVDVVLMLAKDALKDFLKEVDSLVLNTTLAFRKLLITNVYFESKRLVEQKWKELMQEEAAAQSEAIPPLSPAAPTKGE
chain 2: MYRRFFRSAAVKHLGTTSAQCLMRATKYPCGAMCRNASSCHPQTLGYQQRFQSTTDKKFHCSVCKKPFRLEMAAKLHLQQAHGGDGSVEAGPGPGVEASSVNVVSTPVPSPISPVERTFVDEEERRPRRMRPTPKPLHQPDRDIPAAAMEEMLGVWDKIGLNRLEGNFVHSTMVMKVFAAPPDVSEIPLYEHVAPEGENPFDSLDHMTTGTVDATYVGHDAFAEVDLVDPFVAAPDQTLNPFRAGKVRNPFTRISPTQREVVKPLQPPQPKEEPLKAPVTPFGQLPMFGQTREPSASFAAAAVSVQAAANPNEVSSPFAAAVSSSPFVGQVASPFAPAQDVAGSPFEASPCAASSPFVTAGGQETSPFAAPSTPASFGQGSLFPPMGTGAPGFTAITETEQRQQELEHGCPTCGKKFSTFEGAAMHSKSKHGIVLESKKVKDRLNRKGVPDLPAYVPSPVDLSSTSPFGTRSAIGASWAETELIPHAQCVSNITIVGRVLDVSQASENVSHVTVFVEGERSGEEETLTLCCFGEVSQKIRGTLKRNATIFASGTLRLHPVYEASNNKYYVSPVVHVSMPTGTLAVIT

In this test the parent is B1. The experiment in a line: co-precipitation (pull-down) with His-tag isolation beads, [35S]-methionine labeled proteins; parent: 100; read off a plot.
Consider chain 1 YMPLPNDQSDFSPYIEIDLPSESRIQSLHKSGLAAQEWVACEKVHGTNFGIYLINQGDHEVVRFAKRSGIMDPNENFFGYHILIDEFTAQIRILNDLLKQKYGLSRVGRLVLNGELFGAKYKHPLVPKSEKWCTLPNGKKFPIAGVQIQREPFPQYSPELHFFAFDIKYSVSGAEEDFVLLGYDEFVEFSSKVPNLLYARALVRGTLDECLAFDVENFMAPLPALLGLGNYPLEGNLAEGVVIRHVRRGDPAVEKHNVSTIIKLRCSSFMELKHPGKQKELKETFIDTVRSGALRRVRGNVTVISDSMLPQVEAAANDLLLNNVSDGRLSNVLSKIGREPLLSGEVSQVDVVLMLAKDALKDFLKEVDSLVLNTTLAFRKLLITNVYFESKRLVEQKWKELMQEEAAAQSEAIPPLSPAAPTKGE [chain 1 T220A], for which the percent of parent was ~84 % of WT.
Next, chain 1 YMPLPNDQSDFSPYIEIDLPSESRIQSLHKSGLAAQEWVACEKVHGTNFGIYLINQGDHEVVRFAKRSGIMDPNENFFGYHILIDEFTAQIRILNDLLKQKYGLSRVGRLVLNGELFGAKYKHPLVPKSEKWCTLPNGKKFPIAGVQIQREPFPQYSPELHFFAFDIKYSVSGAEEDFVLLGYDEFVEFSSKVPNLLYARALVRGTLDECLAFDVENFMTPLPALLGLGNYPLEGNLAEGVVIRHVRRGDPAVEKHNVSTIIKLRCSSFMELKHPGKQKELKETFIDTVRSGALRRVRGNVTVISDSMLPQVEAAANDLLLNNVSDGRLSNVLSKIGREPLLSGEVSQVDVVLMLAKDALKDFLKEVDSLVLNTTLAFRKLLITNVYFESARLVEQKWKELMQEEAAAQSEAIPPLSPAAPTKGE [chain 1 K391A]: ~88 % of WT; chain 1 YMPLPNDQSDFSPYIEIDLPSESRIQSLHKSGLAAQEWVACEKVHGTNFGIYLINQGDHEVVRFAKRSGIMDPNENFFGYHILIDEFTAQIRILNDLLKQKYGLSRVGRLVLNGELFGAKYKHPLVPKSEKWCTLPNGKKFPIAGVQIQREPFPQYSPELHFFAFDIKYSVSGAEEDFVLLGYDEFVEFSSKVPNLLYARALVRGTLDECLAFDVENFMTPLPALLGLGNYPLEGNLAEGVVIRHVRRGDPAVEKHNVATIIKLRCSSFMELKHPGKQKELKETFIDTVRSGALRRVRGNVTVISDSMLPQVEAAANDLLLNNVSDGRLSNVLSKIGREPLLSGEVSQVDVVLMLAKDALKDFLKEVDSLVLNTTLAFRKLLITNVYFESKRLVEQKWKELMQEEAAAQSEAIPPLSPAAPTKGE [chain 1 S259A]: ~100 % of WT.
Then chain 1 YMPLPNDQSDFSPYIEIDLPSESRIQSLHKSGLAAQEWVACEKVHGTNFGIYLINQGDHEVVRFAKRSGIMDPNENFFGYHILIDEFTAQIRILNDLLKQKYGLSRVGRLVLNGELFGAKYKHPLVPKSEKWCTLPNGKKFPIAGVQIQREPFPQYSPELHFFAFDIKYSVSGAEEDFVLLGYDEFVEFSSKVPNLLYARALVRGTLDECLAFDVENFMTPLPALLGLGNYPLEGNLAEGVVIRHVRRGDPAVEKHNVSTIIKLRCSSFMELKHPGKQKELKETFIDTVRSGALRRVRGNVTVISDSMLPQVEAAANDLLLNNVSDGRLSNVLSKIGREPLLSGEVSQVDVVLMLAKDALKDFLKEVDSLVLNTTLAFRKLLITNVYFESKRLVEQKAKELMQEEAAAQSEAIPPLSPAAPTKGE [chain 1 W398A], with ~66 % of WT.
Next, chain 1 YMPLPNDQSDFSPYIEIDLPSESRIQSLHKSGLAAQEWVACEKVHGTNFGIYLINQGDHEVVRFAKRSGIMDPNENFFGYHILIDEFTAQIRILNDLLKQKYGLSRVGRLVLNGELFGAKYKHPLVPKSEKWCTLPNGKKFPIAGVQIQREPFPQYSPELHFFAFDIKYSVSGAEEDFVLLGYDEFVEFSSKVPNLLYARALVRGTLDECLAFDVENFMTPLPALLGLGNYPLEGNLAEGVVIRHVRRGDPAVEKHNVSTIIKLRCSSFMELKHPGKQKELKETFIDTVRSGALRRVRGNVTVISDSMLPQVEAAANDLLLNNVSDGRLSNVLSKIGREPLLSGEVSQVDVVLMLAKDALKDFLKEVDSLVLNTTLAFRKLLITNVYFESKRLVEQKWAELMQEEAAAQSEAIPPLSPAAPTKGE [chain 1 K399A]: ~60 % of WT; chain 1 YMPLPNDQSDFSPYIEIDLPSESRIQSLHKSGLAAQEWVACEKVHGTNFGIYLINQGDHEVVRFAKRSGIMDPNENFFGYHILIDEFTAQIRILNDLLKQKYGLSRVGRLVLNGELFGAKYKHPLVPKSEKWCTLPNGKKFPIAGVQIQREPFPQYSPELHFFAFDIKYSVSGAEEDFVLLGYDEFVEFSSKVPNLLYARALVRGTLDECLAFDVENFMTPLPALLGLGNYPLEGNLAEGVVIRHVRRGDPAVEKHNVSTIIKLRCSSFMELKHPGKQKELKETFIDTVRSGALRRVRGNVTVISDSMLPQVEAAANDLLLNNVSDGRLSNVLSKIGREPLLSGEVSQVDVVLMLAKDALKDFLKEVDSLVLNTTLAFRALLITNVYFESKRLVEQKWKELMQEEAAAQSEAIPPLSPAAPTKGE [chain 1 K380A]: ~84 % of WT.
With chain 1 YMPLPNDQSDFSPYIEIDLPSESRIQSLHKSGLAAQEWVACEKVHGTNFGIYLINQGDHEVVRFAKRSGIMDPNENFFGYHILIDEFTAQIRILNDLLKQKYGLSRVGRLVLNGELFGAKYAHPLVPKSEKWCTLPNGKKFPIAGVQIQREPFPQYSPELHFFAFDIKYSVSGAEEDFVLLGYDEFVEFSSKVPNLLYARALVRGTLDECLAFDVENFMTPLPALLGLGNYPLEGNLAEGVVIRHVRRGDPAVEKHNVSTIIKLRCSSFMELKHPGKQKELKETFIDTVRSGALRRVRGNVTVISDSMLPQVEAAANDLLLNNVSDGRLSNVLSKIGREPLLSGEVSQVDVVLMLAKDALKDFLKEVDSLVLNTTLAFRKLLITNVYFESKRLVEQKWKELMQEEAAAQSEAIPPLSPAAPTKGE [chain 1 K122A], the percent of parent was ~100 % of WT.
Next, chain 1 YMPLPNDQSDFSPYIEIDLPSESRIQSLHKSGLAAQEWVACEKVHGTNFGIYLINQGDHEVVRFAKRSGIMDPNENFFGYHILIDEFTAQIRILNDLLKQKYGLSRVGRLVLNGELFGAKYKHPLVPKSEKWCTLPNGKKFPIAGVQIQREPFPQYSPELHFFAFDIKYSVSGAEEDFVLLGYDEFVEFSSKVPNLLYARALVRGTLDECLAFDVENFMTPLPALLGLGNYPLEGNLAEGVVIRHVRRGDPAVEKHNVSTIIKLRCSSFMELKHPGKQKELKETFIDTVRSGALRRVRGNVTVISDSMLPQVEAAANDLLLNNVSDGRLSNVLSAIGREPLLSGEVSQVDVVLMLAKDALKDFLKEVDSLVLNTTLAFRKLLITNVYFESKRLVEQKWKELMQEEAAAQSEAIPPLSPAAPTKGE [chain 1 K335A]: ~57 % of WT; chain 1 YMPLPNDQSDFSPYIEIDLPSESRIQSLHKSGLAAQEWVACEKVHGTNFGIYLINQGDHEVVRFAKRSGIMDPNENFFGYHILIDEFTAQIRILNDLLKQKYGLSRVGRLVLNGELFGAKYKHPLVPKSEKWCTLPNGKKFPIAGVQIQREPFPQYSPELHFFAFDIKYSVSGAEEDFVLLGYDEFVEFSSKVPNLLYARALVRGTLDECLAFDVENFMTPLPALLGLGNAPLEGNLAEGVVIRHVRRGDPAVEKHNVSTIIKLRCSSFMELKHPGKQKELKETFIDTVRSGALRRVRGNVTVISDSMLPQVEAAANDLLLNNVSDGRLSNVLSKIGREPLLSGEVSQVDVVLMLAKDALKDFLKEVDSLVLNTTLAFRKLLITNVYFESKRLVEQKWKELMQEEAAAQSEAIPPLSPAAPTKGE [chain 1 Y231A]: ~75 % of WT.
Next, chain 1 YMPLPNDQSDFSPYIEIDLPSESRIQSLHKSGLAAQEWVACEKVHGTNFGIYLINQGDHEVVRFAKRSGIMDPNENFFGYHILIDEFTAQIRILNDLLKQKYGLSRVGRLVLNGELFGAKYKHPLVPKSEKWCTLPNGKKFPIAGVQIQREPFPQYSPELHFFAFDIKYSVSGAEEDFVLLGYDEFVEFSSKVPNLLYARALVRGTLDECLAFDVENFMTPLPALLGLGNYPLEGNLAEGVVIRHVRRGDPAVEKHNVSTIIKLRCSSFMELKHPGKQKELKETFIDTVRSGALRRVRGNVTVISDSMLPQVEAAANDLLLNNVSDGRLSNVLSKIGREPLLSGEVSQVDVVLMLAKDALKDFLKAVDSLVLNTTLAFRKLLITNVYFESKRLVEQKWKELMQEEAAAQSEAIPPLSPAAPTKGE [chain 1 E366A]: ~72 % of WT.
Next, chain 1 YMPLPNDQSDFSPYIEIDLPSESRIQSLHKSGLAAQAWVACEKVHGTNFGIYLINQGDHEVVRFAKRSGIMDPNENFFGYHILIDEFTAQIRILNDLLKQKYGLSRVGRLVLNGELFGAKYKHPLVPKSEKWCTLPNGKKFPIAGVQIQREPFPQYSPELHFFAFDIKYSVSGAEEDFVLLGYDEFVEFSSKVPNLLYARALVRGTLDECLAFDVENFMTPLPALLGLGNYPLEGNLAEGVVIRHVRRGDPAVEKHNVSTIIKLRCSSFMELKHPGKQKELKETFIDTVRSGALRRVRGNVTVISDSMLPQVEAAANDLLLNNVSDGRLSNVLSKIGREPLLSGEVSQVDVVLMLAKDALKDFLKEVDSLVLNTTLAFRKLLITNVYFESKRLVEQKWKELMQEEAAAQSEAIPPLSPAAPTKGE [chain 1 E37A]: ~67 % of WT.
Regarding chain 1 YMPLPNDQSDFSPYIEIDLPSESRIQSLHKSGLAAQEWVACEKVHGTNFGIYLINAGDHEVVRFAKRSGIMDPNENFFGYHILIDEFTAQIRILNDLLKQKYGLSRVGRLVLNGELFGAKYKHPLVPKSEKWCTLPNGKKFPIAGVQIQREPFPQYSPELHFFAFDIKYSVSGAEEDFVLLGYDEFVEFSSKVPNLLYARALVRGTLDECLAFDVENFMTPLPALLGLGNYPLEGNLAEGVVIRHVRRGDPAVEKHNVSTIIKLRCSSFMELKHPGKQKELKETFIDTVRSGALRRVRGNVTVISDSMLPQVEAAANDLLLNNVSDGRLSNVLSKIGREPLLSGEVSQVDVVLMLAKDALKDFLKEVDSLVLNTTLAFRKLLITNVYFESKRLVEQKWKELMQEEAAAQSEAIPPLSPAAPTKGE [chain 1 Q56A], the percent of parent was ~110 % of WT.
Regarding chain 1 YMPLPNDQSDFSPYIEIDLPSESRIQSLHKSGLAAQEWVACEKVHGTNFGIYLINQGDHEVVRFAKRSGIMDPNANFFGYHILIDEFTAQIRILNDLLKQKYGLSRVGRLVLNGELFGAKYKHPLVPKSEKWCTLPNGKKFPIAGVQIQREPFPQYSPELHFFAFDIKYSVSGAEEDFVLLGYDEFVEFSSKVPNLLYARALVRGTLDECLAFDVENFMTPLPALLGLGNYPLEGNLAEGVVIRHVRRGDPAVEKHNVSTIIKLRCSSFMELKHPGKQKELKETFIDTVRSGALRRVRGNVTVISDSMLPQVEAAANDLLLNNVSDGRLSNVLSKIGREPLLSGEVSQVDVVLMLAKDALKDFLKEVDSLVLNTTLAFRKLLITNVYFESKRLVEQKWKELMQEEAAAQSEAIPPLSPAAPTKGE [chain 1 E75A], the percent of parent was ~74 % of WT.
